Experimental data published in the nanobody polyreactivity screen of Harvey et al. (2022).

Assay: yeast display, Sf9 membrane polyspecificity reagent, FACS + sequencing; frameworks hold sequencing errors
Summary of the method: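 Polyreactivity labels are assigned by the sorting gate from which each nanobody was recovered. The gates were low and high (top ~1%), set on anti-HA fluorescence for expression and streptavidin fluorescence for reagent binding. Before sorting, galactose-induced (36–48 hours) yeast display cells were stained for 1 hour at 4 °C with 10% biotinylated, detergent-solubilized Sf9 membrane reagent.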

| Sequence | polyreactivity (PSR sort gate) |
| --- | --- |
| QVQLVESGGGLVQAGGRLRLSCAASGSTSVYYARGWYRQAPGKERELVAGITSGGNTNYADSVKGRFTISRDNAKNTVYFQMISLNPEDTSVYYCNAVYIVTVGWIRLGSYYYWGQGTQVTVSS | low polyreactivity |
| QVQLVESGGGLVQAGGRLRLSCAASGSTVVFNAMGWYRQAPGKERELVAAISKSGGSTYYADSVKGRFTISRDNAKNTVYLQMNSLKPEDTAVYYCNRVSRKILDGDYDYWGQGTQVTVSS | high polyreactivity |
| QVQLVESGGGLVQAGGRLRLSCAASGYIFGWNAMGWYRQAPGKERELVAAISSGGNTKYADSVKGRFTISRDNAKNTVYLQMNSLKPEDTAVYYCNADFRVYIPHVPYFVDFDYWGQGTQVTVSS | low polyreactivity |
| QVQLVESGGGLVQAGGRLRLSCAATGRTFLAYAMGWYREAPGKERELVAAITIGGGTYADSVKGRFTISRDNAKNTVYLQMNSLKQEDTAVYYCAKPGWYDGDYWGQGTQVTVSS | low polyreactivity |
| QVQLVESGGGLVQAGGRLRLSCAATGSIFRGYAMGWYRQAPGKERELVAAISYRGGSTYYADSVKGRFTISRDNAKNTVYLQMNSLKPEDTAVDYWAAVYSHYWWFDYWGQGTQVTVSS | high polyreactivity |
| QVQLVESGGGLVQAGGRLRLSCAPSGIIFQQYAMGWYRQAPGKERELVAAISRGGTRTYYADSVKGRFTISRDNAKNTVYLLMNSLKPEDTAVDYCAADRGYFSYDYWGQGTQVTVSS | high polyreactivity |
| QVQLVESGGGLVQAGGRLRLSCAPSGSTFPPYAMGWYRQAPGKERELVADITRRGASTYYADSVKGRFTISRDNAKNTVYLQMNSLKPEDTAVYYCAARFYYQYYSGFDYWGQGTQVTVST | high polyreactivity |
| QVQLVESGGGLVQAGGRLRLSCPASGGTFGYNAMGWYRQAPGKERELVAAIRNGGSTYFADSVKGRFTISRDNAKNTVYLQMNSLKPEESAVYYCAAGPRGTGKYYWGQGTQVTVSS | high polyreactivity |
| QVQLVESGGGLVQAGGRLRLSCPASGRIFSLYAMGWYRQAPGKERELVAVISSTGVSSHYADSVKGRFTISRDNAKYTVYLLMNSLNPEDTAVYYCNARWSFPRWGYEYGYWGQGTQVTVSS | high polyreactivity |
| QVQLVESGGGLVQAGGRLRLSCPASGRTFRGYARGWYRQAPRKERELLAAITSGGSTNYADSVKGRFTISRDNAKNTVYLQKKSLKPEDTAVYYCAADSWFYGGEYKLGYYWGQGTQVSVSS | low polyreactivity |
| QVQLVESGGGLVQAGGRLRLSFAASGITFYVYTMGWYRQAPGKERELVPAISTTGSTNYADSVKGRFTISRDNAKNTVYLQMNSLKPEDTAVYYCNAKYYWLVFEYDYWGQGTQVTVSS | high polyreactivity |
| QVQLVESGGGLVQAGGRLRLSGAASGSIYFRNVMGWYRQAPGKERELVAAITWSGGGTYYPDSVKGRFTISRDNAKNTVYLQMNSLQPEDTAFYYCAARSPTIRYGAGYWGQVTQVTVSS | low polyreactivity |
| QVQLVESGGGLVQAGGRLRLSGAASGSTFGGYAMGWYRQAPGKERELVASINYGGDTTYYADSVKGRFTISRDNAKNTVYLQMNSLKPEDTAVYYCATDGTTPTPRYAFVRFDHWGQGTQVTVSS | low polyreactivity |
| QVQLVESGGGLVQAGGRLRLSSAASGRIFTNYAMGWYRQAPGKERELVARISKRGGSTYYADSVKGRLTFSRDNAKNTVYLQMNSLKPEDTAVYYCNAVSNLYYYWGQGTQVTVSS | high polyreactivity |
| QVQLVESGGGLVQAGGRLRLSSAASGSTFPYNAMGWYRQAPGKERELVADITSGSSTYYADSGKGRFTISRDNAKNTVYLQMNSLKPEDTAVYYCAATYFVWLNAGGRGYWGQGTQVTVSS | low polyreactivity |
| QVQLVESGGGLVQAGGRLRLTCAASGFIFGYYTMGWYRQAPGKERELVASITRGGSTNYADSVKGRFTISRDNAKNTVYLQMNSLKPEDTAVYYCAKRYAQTYSVSRYYYWGQGTQVTVSS | high polyreactivity |
| QVQLVESGGGLVQAGGRLRLTCAASGSIFGTYAMGWYRQAPGKERELVAAINSGDSTYYADSVKGRFTISRDNAKNTVYLQMNSLKPEDTAVYYCAAGRYWPGDYWGQGTQVTVSS | high polyreactivity |
| QVQLVESGGGLVQAGGRLRLTCAASGSIFWSNAMGLYRQAPGKERELVAAITSGGSTYYADSVKGRFTISRDNAKNTVYLQMNSLKPEDTAVYYCAARPEVRHQYRRYDYWGQGTQVTVSS | low polyreactivity |
| QVQLVESGGGLVQAGGRLSLSCAASGSIFSIYAMGWYRPSPGKERELVSGIRSTVSTNYADSVKGRFTISRDNAKNTVYLQMNSLKPEDTAVYYCATGTPTAPGNYWGQGTQVTVSS | low polyreactivity |
| QVQLVESGGGLVQAGGSHRLICAASGFIVSYHAMGWYRPAPGKESELVAAISSRGGSTYYADSVKGRFTISRDNAKNTVYLQMNSLKPEDTAVYYCATAGLTYRALRYYWGQGTQVTVSS | high polyreactivity |
| QVQLVESGGGLVQAGGSHRLSCAASGFTFVYYAMGWYRQAPGKERELVAAISARTSGTYYADSVKGRFTISRDNAKNTVYLQMNSLTPEDTAVYYCAAGYSYVYWSESAYDYWGQGTQVTVSS | low polyreactivity |
| QVQLVESGGGLVQAGGSHRLSCAASGFTIYGNAMGWYRQAPGKERELVAAISGSGGITYYADSVKGRFTISRDNAKNTVYLQMNSLKPEDTAVYYCAAEFWVSRSIWLYYYWGQGTQVTVSS | high polyreactivity |

| Sequence | polyreactivity (PSR sort gate) |
| --- | --- |
| QVQLVESGGGLVQAGGSHRLSCAASGGTFRSNAMGWYRQAPGKERELVAAITSNGGRTYYADSVKGRFTISRDNAKNTVYLQMNSLKPEDTAVYYCAALGGYRRPLYGYDYWGQGTQVTVSS | high polyreactivity |
| QVQLVESGGGLVQAGGSHRLSCAASGGTFYYYTMGWYRQAPGKERELVAAISWSGGSTYYADSVKGRFTISRNNEKNTVYLQMKSLKPEDSAVYYCNAVYAGRFGSHYWGQCTQVTVSS | high polyreactivity |
| QVQLVESGGGLVQAGGSHRLSCAASGIIFRFYAMGCYRQAPGTERELVAAITSSGGSTYYADSVKGRFTISRDNAKNTVYLQMNSLNPEDTAVYYCYARVFSQSHYYYWGQGTQVTLSS | high polyreactivity |
| QVQLVESGGGLVQAGGSHRLSCAASGIISPFYAMGWYRQAPGKERELVADISTGGTTTYADSVKGRFTISRDNAKNTVYLQMNSLKPEDTAVYYCNAEVSLTYYWIVWASYDYWGQGTQVTVSS | low polyreactivity |
| QVQLVESGGGLVQAGGSHRLSCAASGITFRRYAMGWYRQAPGKERELVARITDRGSTYYADSVKGRFTSSRDNAKNTVYLQMNSLKPEDTAVYYCAARGYRGLVQLRYGYWGQGTQVTVSS | high polyreactivity |
| QVQLVESGGGLVQAGGSHRLSCAASGITFRWYTMGWYRQAPGKERELVAAITGSGCTTYYADSVKGRFTISRDNAKNNVYLQMYSLKPEDSAVYYCAAEFYGLVYVPPYDYWGQGTQVTVSS | high polyreactivity |
| QVQLVESGGGLVQAGGSHRLSCAASGLNFGDNTMGWYRQAPGKERELVAAISGDVITTYADSVKGRFTISRDNAKNTVYLQMNSLKPEDTAVYYCNAEVKRYYSGLPQYFAGLGYWGQGTQVTVSS | low polyreactivity |
| QVQLVESGGGLVQAGGSHRLSCAASGLTFRKYAMGWYRQAPGKERELVATISRNGGSTYYADSVKGRFTISRDNAKNTVYLQMNSLKPEDTAVYYCAADYYTYDYAGYGDWGQGTQVTVSS | high polyreactivity |
| QVQLVESGGGLVQAGGSHRLSCAASGNTFYDYAMGWYRQAPGKERELVAAISSDGNTYYADSVKGRFTFSRDNAKKTVYLQMNSLKPVDTAVYYCAADAWRYYYLSWFGSIGFDYWGQGTQVTVSS | high polyreactivity |
| QVQLVESGGGLVQAGGSHRLSCAASGRIFDKYAMGWYRQAPGKERELVATITSSGGSTYYADSVKGRFTISRDNAKNTVYLQMNSLKPEDTAVYYCAALDRTGWGYDYWGQGTQVTVSS | low polyreactivity |
| QVQLVESGGGLVQAGGSHRLSCAASGRIFGPYTMGWYRQAPGKERELVAAISLSGGSTYYADSVKGRFTISRDNAKNTVYLQMNRLKAEDTAVYYCNADHPFPQYEGGSWGQGTQVTVSS | low polyreactivity |
| QVQLVESGGGLVQAGGSHRLSCAASGRIFSYNSMGWYRQAPGKERELVAAITSGGSTYYADSVKGRFTISRDNAKNTVYLQMNSLKPEDTAVYYCAVRSYYFVSRYTRTLYGFDYWGQGTQVTVSS | low polyreactivity |
| QVQLVESGGGLVQAGGSHRLSCAASGRIIHGYAMGWYRQAPGKERELVARISFSGGRTYYADSVKGRFTISRDNAKNTVYLQKNSLIPEDTAVYYCNVRVWSYYYPGRDSDYWGQGTQVTVSS | high polyreactivity |
| QVQLVESGGGLVQAGGSHRLSCAASGRPSAVNALGWSRQAPGKERELVAAITYGGDSTFYADSVKGRFTISRDNAKNTVYLQMNSLKPEDTAVYYCNADIWFIWHSFGWGYDYWGQGTQVTVSS | low polyreactivity |
| QVQLVESGGGLVQAGGSHRLSCAASGRTFRYNAMGWYRQAPGKERELVAAISGRGSSTYYADSVKGRFTISRDNAMNTVYLQMNSLKPEETAVYYCAALPASVRRPGWHDYWGQGTQVTVSS | high polyreactivity |
| QVQLVESGGGLVQAGGSHRLSCAASGRTFYRYPMGWYRQAPGKERELVATINSGTSTSYADSVKGRFTISRDNAKYTVYLQMNSLKPEDTAVYYCAAKLWTLSFSSRFGGMYYWGQGTQVTVSS | high polyreactivity |
| QVQLVESGGGLVQAGGSHRLSCAASGRTFYSYPMGWYRQAPGKEREIVAAIHWSGTTTYADSVKGRFTISRDNAKNTVYLEMNSLKPDATAVYYCAADRVSYIGAGWFDYWGQGTQVTVSS | high polyreactivity |
| QVQLVESGGGLVQAGGSHRLSCAASGSIFAIYAMGWYRQAPGKERELVAAISSSSGSTYYADSVKGRFTISRDNAKNTVYLQMNSLKPEDTAVYYCAAESGRRIKYWRGYYYWGQGTQVTVSS | low polyreactivity |
| QVQLVESGGGLVQAGGSHRLSCAASGSIFRSYAMGWYRQAPGKERELVASISRRGGSTYYADSVKGRFTISRDNAKNTVYLQMNSLIPEDTAVYYCAAVRYNSRVSTTPSEMYYWGQGTQVTVSS | low polyreactivity |
| QVQLVESGGGLVQAGGSHRLSCAASGSIFTINPMGWYRQAPGKERELVAAIRSGGGTNYADSVKGRFTISRDNAKNTVYLQMISLKPEDTAVYYCAADLWAGKYGEYDYWGQGTQVTVSS | high polyreactivity |
| QVQLVESGGGLVQAGGSHRLSCAASGSIFTWNGMGWYRQAPGKERELVAAISNGASTNYADSVKGRFTISRDNAKNTVYLQMNSLKPEDTEVDYCAAKSTGRYDYWGQGTQVTVSS | low polyreactivity |
